Numbering of substitutions follows the chain as printed.
B1: M4-3 ML2 (parental) (antibody, human IgG1, kappa, V domains shown)
VH: QVQLQESGPGLVKPSQTLSLTCTVSGGSITSGYYWNWIRQHPGKGLEWIGYITYDGSNNYNPSLKSRVTISRDTSKNQFSLKLSSVTAADTAVYYCADFDYWGQGTLVTVSS
VL: DIQMTQSPSSLSASVGDRVTITCRASQGIRNYLNWYQQKPGKAPKLLIYYTSSLHSGVPSRFSGSGSGTDFTLTISSLQPEDFATYYCQQYSKLPWTFGQGTKVEIKR
notes: Non-matured parental humanized IgG; also called humanized antibody M4-3 ML2
B2: M4-3 (C1) ML2 (antibody, human IgG1, V domains shown)
VH: B1 VH with Y54F
VL: DIQMTQSPSSLSASVGDRVTITCRASQGIRNYLNWYQQKPGKAPKLLIYYTSSLHSGVPSRFSGSGSGTDFTLTISSLQPEDFATYYCQQYSKLPWTFGQGTKVEIK
B3: M4-3 (D6) ML2 (antibody, human IgG1, V domains shown)
VH: B1 VH with Y54F, S57K
VL: B2 VL
B4: M4-3 ML2 (C5) (antibody, human IgG1, V domains shown)
VH: B1 VH
VL: B2 VL with Q27R, N31E, S52G, K93E
B5: M4-3 (A7) ML2 (antibody, human IgG1, V domains shown)
VH: B1 VH with S31D, Y54F, S57R
VL: B2 VL
B6: M4-3 (A7) ML2 (E10) (antibody, human IgG1, V domains shown)
VH: B1 VH with S31D, Y54F, S57R
VL: B2 VL with Q27Y, N31G, Y87H
B7: M4-3 (A7) ML2 (C5) (antibody, human IgG1, V domains shown)
VH: B1 VH with S31D, Y54F, S57R
VL: B2 VL with Q27R, N31E, S52G, K93E
B8: M4-3 (B7) ML2 (antibody, human IgG1, V domains shown)
VH: B1 VH with Y54F, S57I
VL: B2 VL
B9: M4-3 (B8) ML2 (antibody, human IgG1, V domains shown)
VH: B1 VH with Y54F, S57R
VL: B2 VL
B10: M4-3 (A7) ML2 (G3) (antibody, human IgG1, V domains shown)
VH: B1 VH with S31D, Y54F, S57R
VL: B2 VL with F71Y, K93A
B11: M4-3 ML2 (E10) (antibody, human IgG1, V domains shown)
VH: B1 VH
VL: B2 VL with Q27Y, N31G, Y87H
B12: M4-3 (C1) ML2 (E10) (antibody, human IgG1, V domains shown)
VH: B1 VH with Y54F
VL: B2 VL with Q27Y, N31G, Y87H
B13: M4-3 ML2 (E10/G3) (antibody, human IgG1, V domains shown)
VH: B1 VH
VL: B2 VL with Q27Y, N31G, Y87H, K93A
B14: M4-3 ML2 (C5/G3) (antibody, human IgG1, V domains shown)
VH: B1 VH
VL: B2 VL with Q27R, N31E, S52G, K93A
B15: M4-3 (C1) ML2 (C5) (antibody, human IgG1, V domains shown)
VH: B1 VH with Y54F
VL: B2 VL with Q27R, N31E, S52G, K93E
B16: M4-3 (C1) ML2 (G3) (antibody, human IgG1, kappa, V domains shown)
VH: B1 VH with Y54F
VL: B1 VL with F71Y, K93A

What follows are binders tested against T1, Human MCSP D3 (human, UniProt Q6UVK1 1582-2224) (assay: SPR Biacore T200, 25 C, IgG captured on anti-human Fab, MCSP D3 as analyte, 1:1 Langmuir fit).
T1 construct: Soluble analyte in SPR; The selection antigen was hu-MCSP(D3 domain)-avi-his; also called hu-MCSP(D3 domain)-avi-his
T1 sequence: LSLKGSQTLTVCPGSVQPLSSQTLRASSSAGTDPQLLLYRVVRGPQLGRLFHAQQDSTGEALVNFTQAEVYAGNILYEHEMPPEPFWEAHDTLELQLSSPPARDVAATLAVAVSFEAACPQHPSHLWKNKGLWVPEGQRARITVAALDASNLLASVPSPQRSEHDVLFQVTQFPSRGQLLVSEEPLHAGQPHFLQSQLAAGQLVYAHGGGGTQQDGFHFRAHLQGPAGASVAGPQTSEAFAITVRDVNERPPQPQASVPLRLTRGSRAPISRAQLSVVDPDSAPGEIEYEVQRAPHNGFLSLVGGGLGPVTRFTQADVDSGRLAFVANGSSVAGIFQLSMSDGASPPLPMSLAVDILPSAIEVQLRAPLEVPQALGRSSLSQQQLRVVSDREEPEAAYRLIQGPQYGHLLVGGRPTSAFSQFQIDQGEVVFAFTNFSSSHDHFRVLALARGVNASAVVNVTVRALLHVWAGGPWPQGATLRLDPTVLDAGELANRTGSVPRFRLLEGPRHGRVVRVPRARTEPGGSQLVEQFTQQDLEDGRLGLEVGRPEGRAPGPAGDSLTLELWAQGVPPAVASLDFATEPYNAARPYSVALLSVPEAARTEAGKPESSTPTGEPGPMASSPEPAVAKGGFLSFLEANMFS
Method: (§1) IgGs were captured on a CM5 sensorchip surface with immobilized anti human Fab. Capture IgG was coupled to the sensorchip surface by direct immobilization of around 10,000 resonance units (RU) at pH 5.0 using the standard amine coupling kit (Biacore, Freiburg/Germany). IgGs are captured for 60 s at 30 nM with 10 μl/min. Human and cynomolgus MCSP D3 were passed at a concentration of 0.49-1000 nM with a flowrate of 30 μl/min through the flow cells over 180 s. The dissociation is monitored for 210 s. Bulk refractive index differences were corrected for by subtracting the response obtained on reference flow cell. Here, the antigens were flown over a surface with immobilized anti-human Fab antibody but on which HBS-EP has been injected rather than anti MCSP IgGs.

Point of comparison: B9, Kd 19.2 nM. Against it:
- B1 — within 1.5-fold, 24.2 nM
- B2 — 2.7-fold lower, 7.2 nM
- B3 — within 1.5-fold, 15.1 nM
- B4 — 24-fold lower, 0.8 nM
- B5 — 2.7-fold lower, 7.1 nM
- B6 — 6.2-fold lower, 3.1 nM
- B7 — 9600-fold lower, 0.002 nM
- B8 — 1.5-fold lower, 12.6 nM
- B10 — 2100-fold lower, 0.009 nM
- B11 — within 1.5-fold, 21.4 nM
- B12 — 4.9-fold lower, 3.9 nM
- B13 — 3.5-fold lower, 5.5 nM
- B14 — 4.6-fold lower, 4.2 nM
- B15 — 6400-fold lower, 0.003 nM
- B16 — 12-fold lower, 1.6 nM

Biological target: T2, Cynomolgus MCSP D3 (cynomolgus, UniProt Q6UVK1 1582-2224 (human entry), limits assumed)
T2 construct: Soluble analyte in SPR
T2 chain: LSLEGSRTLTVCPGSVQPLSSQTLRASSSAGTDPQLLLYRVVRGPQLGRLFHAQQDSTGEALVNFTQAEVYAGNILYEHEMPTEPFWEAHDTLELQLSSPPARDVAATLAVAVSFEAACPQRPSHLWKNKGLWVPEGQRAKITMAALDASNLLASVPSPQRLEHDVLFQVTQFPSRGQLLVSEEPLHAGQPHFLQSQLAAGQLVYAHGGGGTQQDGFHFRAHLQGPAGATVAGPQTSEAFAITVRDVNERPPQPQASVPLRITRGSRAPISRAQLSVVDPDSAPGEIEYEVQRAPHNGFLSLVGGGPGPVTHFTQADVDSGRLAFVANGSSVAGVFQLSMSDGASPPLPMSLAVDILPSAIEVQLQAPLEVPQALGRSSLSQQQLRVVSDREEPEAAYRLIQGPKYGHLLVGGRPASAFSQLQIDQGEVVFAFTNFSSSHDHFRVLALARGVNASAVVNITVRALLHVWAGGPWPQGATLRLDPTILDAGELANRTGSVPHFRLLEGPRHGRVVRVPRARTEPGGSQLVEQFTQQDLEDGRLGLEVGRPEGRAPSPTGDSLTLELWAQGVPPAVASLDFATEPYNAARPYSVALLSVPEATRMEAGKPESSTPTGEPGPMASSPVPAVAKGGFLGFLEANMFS
Experiment: as above
Method: as §1

Point of comparison: B4, Kd 5.7 nM. Against it:
- B1 — 14-fold higher, 82.5 nM
- B2 — 1.7-fold higher, 9.8 nM
- B3 — 4.3-fold higher, 24.6 nM
- B5 — 2.9-fold higher, 16.3 nM
- B6 — within 1.5-fold, 8.5 nM
- B7 — 5.2-fold lower, 1.1 nM
- B8 — 1.7-fold higher, 9.9 nM
- B9 — 5.1-fold higher, 28.8 nM
- B10 — 3.8-fold lower, 1.5 nM
- B11 — 11-fold higher, 62.8 nM
- B12 — within 1.5-fold, 4.5 nM
- B13 — 2.1-fold higher, 12.2 nM
- B14 — 2.2-fold higher, 12.8 nM
- B15 — 48-fold lower, 0.12 nM
- B16 — 4.4-fold lower, 1.3 nM
